Columns and labels:
[1] = target: Asp7 (UniProt position 678, …); assay: potentiometry; conditions: 25 °C, 0.1 M (KNO3), none, 1.0 mM peptide in 4 mM HNO3/96 mM KNO3, under argon
[2] = target: His6 (UniProt position 677, …); assay: potentiometry; conditions: 25 °C; 0.1 M (KNO3); none; 1.0 mM peptide in 4 mM HNO3/96 mM KNO3, under argon; apo peptide (no metal)
[3] = target: Nterm5 (UniProt position 676, …); assay: potentiometry; conditions: 25 °C; 0.1 M (KNO3); none; 1.0 mM peptide in 4 mM HNO3/96 mM KNO3, under argon; apo peptide (no metal)
[4] = target: Tyr10 (UniProt position 681, …); assay: UV-vis; conditions: 25 °C; none stated; titrated with concentrated NaOH; Cu(II)-bound: 0.9 mM Cu(II), 1.0 mM peptide
[5] = target: Glu11 (UniProt position 682, …); assay: potentiometry; conditions: 25 °C, 0.1 M (KNO3), none, 1.0 mM peptide in 4 mM HNO3/96 mM KNO3, under argon
[6] = target: Tyr10 (UniProt position 681, …); assay: potentiometry; conditions: 25 °C; 0.1 M (KNO3); none; 1.0 mM peptide in 4 mM HNO3/96 mM KNO3, under argon; apo peptide (no metal)
[7] = target: Tyr10 (UniProt position 681, …); assay: other (circular dichroism); conditions: 25 °C; none stated; titrated with concentrated NaOH; Cu(II)-bound: 0.9 mM Cu(II), 1.0 mM peptide
[8] = Cu(II)-bound, mononuclear 3N complex (Arg5 N-terminal amine, Arg5-His6 amide N-, His6 imidazole, equatorial H2O), peptide:metal ratios 1:2, 1:1 and 1:0.5

B1: Amyloid-beta peptide fragment 5-9 (Abeta5-9) (Homo sapiens) (peptide)
chain: RHDSG
B1 showed a pKa [1, 8] of 3.82, a pKa ([1]; apo peptide (no metal)) of 3.17 and a pKa [2] of 6.13. The pKa [3] was 7.37.

B2: Amyloid-beta peptide fragment 5-12 (Abeta5-12) (Homo sapiens) (peptide)
chain: RHDSGYEV
With B2 the pKa [4] was 8.95(7), the pKa [1, 8] was 3.23 and the pKa ([1]; apo peptide (no metal)) was 2.73. For the same protein, the pKa [5, 8] was 4.69, the pKa ([5]; apo peptide (no metal)) was 4.37 and the pKa [2] was 6.25. The pKa [3] was 7.52, the pKa [6] was 10.08 and the pKa [7] was 8.89(3).

B3: Amyloid-beta peptide fragment 5-16 (Abeta5-16) (Homo sapiens) (peptide)
chain: RHDSGYEVHHQK
B3 showed a pKa [1, 8] of 3.212, a pKa ([1]; apo peptide (no metal)) of 2.48 and a pKa [5, 8] of 4.169. The pKa ([5]; apo peptide (no metal)) was 3.92 and the pKa [3] was 7.60.

Reference: article PMC7539298
